Data taken from the supplement of paper PMC9170038.

System: MS2 coat protein
Assay: apparent KD of MS2 coat protein; designed switch direction (-1 OFF switch, 1 ON switch): 1; higher = weaker reporter binding
Outline: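 Apparent KD, taken as the median over clusters for each design, was obtained by curve-fitting normalised cluster fluorescence. Designed RNA switches had been transcribed on Illumina chips by stalled E. coli RNA polymerase and titrated with SNAP-549-labelled MS2 coat protein, doubling from 0.7 or 1.5 nM to 3 µM.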

[1] = input ligand: microRNA oligo, concentration not stated
[2] = Eterna round: R95, input ligand: FMN 200 uM
[3] = Eterna round: R95, input ligand: microRNA oligo, concentration not stated
[4] = Eterna round: R95, input ligand: none

| Sequence | apparent KD of MS2 coat protein (input ligand: FMN 200 uM) [nM] | apparent KD of MS2 coat protein [1] [nM] | apparent KD of MS2 coat protein (input ligand: none) [nM] | apparent KD of MS2 coat protein [2] [nM] | apparent KD of MS2 coat protein [3] [nM] | apparent KD of MS2 coat protein [4] [nM] |
| --- | --- | --- | --- | --- | --- | --- |
| UUGAAGAAUUAAGGAUAUCGAGUCGUCAGAUUAAACAUGAGGAUCACCCAUGUGGGUUGCGGUAUCGAGAAGGUAAAUUACAAG [JL JR Sub099 mod 2] (Eterna round: R96, puzzle: Same State NG 2) | 20.5 | 27.2 | 39.9 | – | – | – |
| UUCACCUUAUUUUACAUGAGGAUCACCCAUGUUUUUUUUACGUAGGAUAUCGAUGCUUGAUUGUUCGAGAAGGACGAUGUAAGU [JR_SSND3_Sub054] (Eterna round: R96, puzzle: Same State NG 3) | 27.3 | 24.3 | 31.1 | – | – | – |
| UUUACUUUCAUAGGAUAUCAUGCGAAAAUUGCGUGAGAAGGGUGAACACUGUCUUUCUAAGAGUACAUGAGGAUCACCCAUGUA [SameState NG1 #65] (Eterna round: R96, puzzle: Same State NG 1) | 113 | 102 | 131 | – | – | – |
| GGUGCAAUAAACGCCUACAUGAGGAUCACCCAUGUAUGUAGGCAGGAUAUCGUAUGCAAAGCAUACGAGAAGGGCUAUAGUACC [Mat - Same State NG 3 - JL Mod - D45] (Eterna round: R96, puzzle: Same State NG 3) | 57.1 | 124 | 146 | – | – | – |
| UAGUGAUUGCAAGGAUAUGCUAGUUUUUAUUUGUGUUUGAUAACAAACAUGAGGAUCACCCAUGUGCAGAAGGUGCAAGAUAUG [JR_SSNG2_Sub078] (Eterna round: R96, puzzle: Same State NG 2) | 193 | 361 | 647 | – | – | – |
| UUAUCCUUUUUUUACAUGAGGAUCACCCAUGUUUUUCUUACGUAGGAUAUCGUUGUUUUUUUUUACGAGAAGGACGUAGUAAGA [JR_SSND3_Sub061] (Eterna round: R96, puzzle: Same State NG 3) | 41.3 | 31.9 | 37.1 | – | – | – |
| AAAAUAUAAAGAGAGGAUAUCCAAAGAACCACAUGAGGAUCACCCAUGUAAAGAAAGAAUAAGUGGGAGAAGGCUCAAAUAAUAA [Designing denovo 24] (Eterna round: R96, puzzle: Same State 2) | 24.8 | 82.8 | 114 | – | – | – |
| AUAUGAGGAGCAGGAUAUGCGAAGAAGAAAGAAGUAGAAGGGCUCAUGGGACGACAUGAGGAUCACCCAUGUACUACCCGAUGA [AK SSNG1-V2-8] (Eterna round: R96, puzzle: Same State NG 1) | 49.8 | 66.7 | 55.9 | – | – | – |
| AUAAGUUCGAUGCUCGUCUCUCCGUACUAACAUGAGGAUCACCCAUGUGGUCGGGAAGUAGCCCGACCAGUAUGGCC [Vearebe] (puzzle: Sensor for hsa-mir-208a) | – | – | – | 65.4 | 53.3 | 82.1 |
| AUAAGGCAAGCUUUUUUCUCGUAGUGUAAACAUGAGGAUCACCCAUGUGCCCGCUCUGGAUCUUUGGAUCGCAGAAA [Lavegeaus] (puzzle: Sensor for hsa-mir-208a) | – | – | – | 26.6 | 18.2 | 25.9 |
| GGUCCAGCCUGAGCUGGACAAAAGCAUGUACAUGAGGAUCACCCAUGUCAUGUGCAAGCUUUUUGCUCGUCUUAAAA [JL mod - D87 - 4] (puzzle: Sensor for hsa-mir-208a) | – | – | – | 67.3 | 11 | 73.4 |
| AUCCUACAUGAGGAUCACCCAUGUGAGGCCUCAAUAGGAUAUGCGUGUGCCUUGGCGCAUGCAGAAGGAUUGAAGC [JL Aveso mod 2] (puzzle: Same State 1) | – | – | – | – | 159 | – |
| AUUUAACAUGAGGAUCACCCAUGUCAACAAAGUCGAGGAUAUGGGCAAAUAAAAUAAGAACCAGAAGGCGAAUAAU [salish99_ss1_r3_070] (puzzle: Same State 1) | – | – | – | 40.5 | 283 | 368 |
| GCGAGCGUACUUGCUACAUGAGGAUCACCCAUGUUCGUUGGACAGGAUAUGGUACCGUUUCGGUACCAGAAGGGUUCACAUGUG [JL SSNG3 3.78] (Eterna round: R96, puzzle: Same State NG 3) | 142 | 158 | 242 | – | – | – |
| AACAGACAUGAGGAUCACCCAUGUAGAAUUAUGGGAGGAUAUACAAAGACGAGAGUCAGAGUAGAAGGCCUAGGAC [salish99-ss1-163] (Eterna round: R96, puzzle: Same State 1) | 24.3 | 42.2 | 51.7 | – | – | – |
| UUUGGGUGGCUGGAGGAUAUUCUUGUGGUUACAUGAGGAUCACCCAUGUGUCGCGCGGUACGCGAGGAGAAGGCUGGCGGCCGUU (puzzle: Same State 2) | – | – | – | – | 223 | – |

| Sequence | apparent KD of MS2 coat protein (input ligand: FMN 200 uM) [nM] | apparent KD of MS2 coat protein [1] [nM] | apparent KD of MS2 coat protein (input ligand: none) [nM] | apparent KD of MS2 coat protein [2] [nM] | apparent KD of MS2 coat protein [3] [nM] | apparent KD of MS2 coat protein [4] [nM] |
| --- | --- | --- | --- | --- | --- | --- |
| CCGGUUUAUGGAGGAUAUGGAGCCUUAUUGGCUCCAGAAGGUCAAUAACAUGAGGAUCACCCAUGUCCGGCGGUCAAUAGACCG [Eli NG1ss - 69] (Eterna round: R96, puzzle: Same State NG 1) | 120 | 146 | 349 | – | – | – |
| GCUACCAUUGAAGCCAACAUGAGGAUCACCCAUGUAUGUUGGUAGGAUAUCGAUUGCAAAGCGAUCGAGAAGGGCUAAGGUAGC [Mat - Same State NG 3 - JL Mod - D81] (Eterna round: R96, puzzle: Same State NG 3) | 81.2 | 57.4 | 66.8 | – | – | – |
| GCGAAAUGAUGAAACAUGAGGAUCACCCAUGUAACGAGAGAUGAGGAUAUCGGAAAGGGAGGAGACGAGAAGGCAUGGUCACGC [AK SSNG3-V2-25.1] (Eterna round: R96, puzzle: Same State NG 3) | 48.4 | 43 | 58.7 | – | – | – |
| UGAAUAGUUACAGGAUAUGAGCCGUAAAUUGGGUCAGAAGGGUGGGUGUUCUGCGCGGUGUGUUACAUGAGGAUCACCCAUGUU [SameState NG1 #30] (Eterna round: R96, puzzle: Same State NG 1) | 245 | 99.8 | 244 | – | – | – |
| UUGCAGUCAGGUGAGGAUAUCAUGAGUUUAACAUGAGGAUCACCCAUGUGCUGCCUUGCAGCAUAUGAGAAGGCACCUGGCUGCU [JL-ss2-3.03 Brourd Mod] (puzzle: Same State 2) | – | – | – | 132 | 295 | 535 |
| GUUACAUGAGGAUCACCCAUGUAUGUGUGGGAGUAAGUGUCUUAGGAUAUCUAGUAUUUAAGUUAAGAGAAGGAAGAUUGUUGU [JMF's solution 62] (Eterna round: R96, puzzle: Same State NG 3) | 129 | 78 | 114 | – | – | – |
| CGUUCACAUGAGGAUCACCCAUGUCAGAUUUGGUCAGGAUAUGGUCGGCUUCCGCUAUUGCCAGAAGGGACUGUUG [JR_SS001_Sub705] (Eterna round: R96, puzzle: Same State 1) | 24.3 | 28.8 | 35.2 | – | – | – |
| CGGCGCUGUCGAGAGGAUAUGCGGUGAUGGACAUGAGGAUCACCCAUGUUAGCGAUAGCAUUACGGUAGAAGGCUCUACAGUUGC [Soteed Omei mod 8] (puzzle: Same State 2) | – | – | – | 19.2 | 74.9 | 66.9 |
| AGUCCAGCCUGAGCUGGACAAAGGCAUGUACAUGAGGAUCACCCAUGUCAUGUACAAGCUUUUUGCUCGUCUUAAUA [Zipper 49 - 1] (Eterna round: R96, puzzle: Sensor for hsa-mir-208a) | 211 | 12.6 | 178 | – | – | – |
| AUUUUUAAUGCAGGAUAUGAUUAACAUGAGGAUCACCCAUGUGGUGUUGUGAGUAAGGAGAGUGAUCAGAAGGGCAAUUUUUUU [JMF's solution 78] (Eterna round: R96, puzzle: Same State NG 2) | 731 | 226 | 433 | – | – | – |
| AAACAUGAGCGAGGAUAUGCGGACGAUUACGCUGUAGAAGGCGCAUGUAAAACAACAUGAGGAUCACCCAUGUCAUGUACAUGA (Eterna round: R96, puzzle: Same State NG 1) | 81.3 | 50.4 | 83.6 | – | – | – |
| AAGAUACAUGAGGAUCACCCAUGUCGAGAGAGACGAGGAUAUCUGAAUCGAUUAGAUUACGGAGAAGGCGUGAAAA [LROPPY Same State 1 - v07_deltaG=1.9] (Eterna round: R96, puzzle: Same State 1) | 19.6 | 22.2 | 29.7 | – | – | – |
| UAAUUAAGUCAAGGAUAUCACGUCGAAUAGACGUGAGAAGGUGACCAAUACAUGAGGAUCACCCAUGUAAUACAUGAAUAAUUA [SSNG1/12-B1] (Eterna round: R96, puzzle: Same State NG 1) | 27.7 | 35.8 | 45.9 | – | – | – |
| ACUCUCACAGUAGGAUAUGUAGGAUAUGCCUACAUGAGGAUCACCCAUGUAAACAUGGCAGAAGGAUAGAAGGACUGACAUGGG [pwkr ssNG2 2FMN + 1F5.3] (Eterna round: R96, puzzle: Same State NG 2) | 274 | 233 | 278 | – | – | – |
| GAAGCGGCAGAAUAAAACAUGAGGAUCACCCAUGUCGCGGUUUAGGAUAUGGGACGGGUAUGAACCCAGAAGGAGACCGCAGGC [Eternabot solution 2] (Eterna round: R96, puzzle: Same State NG 3) | 32.7 | 33.8 | 56.2 | – | – | – |
